Counter-ions that a name gives are not always drawn. Like-named read-outs stand apart in the source and are kept apart here.
Assays:
[1] = SAW (30 MHz) perfusion of FITC-Albumin and Fluorescein in pig lip tissue (Example Three); format: in vitro ADME; conditions: for perfusion into pig lip tissue with SAW: SAW 30 MHz, different exposure times and powers; for passive diffusion into pig lip tissue (control sample): no SAW
Description: In this set of experiments, the effect of surface acoustic wave (SAW) at 30 MHz on FITC-Albumin and Fluorescein perfusion for different SAW powers and operating time was investigated.
Fluorescein sodium salt and FITC-Albumin were purchased from Sigma-Aldrich, Australia. Fresh porcine lips were obtained from diamond valley pork abattoir (Laverton, Melbourne) prior to the experiments. Surface acoustic wave (SAW) chip patterning of Chromium and Aluminum interdigital transducers (IDT) were fabricated using standard lithographic techniques at Micro Nano Research Facility (MNRF), RMIT University.
The lips were wrapped in sterile gauze saturated in Krebs buffer during transportation to maintain the viability of the tissues. […] The porcine lips were exposed to various molecules with and without the surface acoustic waves (SAW). The lips were washed immediately after the experiments to get rid of any reminent targeting molecules.
Samples were wrapped in aluminium foil and stored at −80 degree until dermatomed. The tissues were dermatomed in a cryostat at a thickness of 50-micron layer until 1 mm for extensive penetration studies.
Tissue sectioning was performed at RMIT Bundoora and Melbourne University campuses. Fluorescent images of the samples were obtained using optical microscope (×10 lens), consistent light exposure of 600 ms. Acquired images were then quantified using ImageJ software to calculate the normalized pixel intensity of the green channel.
The model drug (FITC-albumin and fluorescein) used was placed directly on the device throughout the experiments. Fresh lips were approximately dissected into a 1 cm*1 cm cube and was placed on the drug. No coupling agent or loading substrate was used to transmit the vibrations from device into tissues. The inter-digital electrodes (IDTs) patterned on the lithium niobate (piezoelectric substrate) generated surface waves (SAW), which in turn drives the model drugs into the tissues. (FIG. 12)

[2] = rat, in vivo
Method: All experiments were conducted in accordance with the ARVO Statement for Use of Animals in Ophthalmic and Vision Research and with approval from the ANU Animal Experimentation Ethics Committee (Ethics ID: A2014/56). Adult Wistar rats were utilised in all experiments, which were born and reared under normal lighting conditions (˜5 lux light) and aged between 90 and 120 post-natal days at the time of use. Wistar rats were anaesthetised with an intraperitoneal injection of ketamine (100 mg/kg; Troy Laboratories, NSW, Australia) and Xylazil (12 mg/kg; Troy Laboratories). Once anaesthetised, Systane eye drops (Alcon, TX, USA) were applied every 2 minutes to maintain corneal lubrication. Animals were placed on a heat blanket to maintain body temperature at 37° C. and a cotton eye loop was applied around the eye to expose the anterior surface.
The inventors' HFB device (with A.A Lab Systems A-301 HS HV amplifier and RIGOL DG4062 Function/Arbitrary Waveform Generator) was loaded with 0.2% Riboflavin-5-phosphate-sodium (Riboflavin-5-phosphate-sodium-5-phosphate sodium #30-1598-25GM; PCCA, TX, USA), made up in sterile saline (0.9% NaCl), and applied to the centre of the cornea for 5 minutes. The settings on the device were as follows: transducer—1.6 MHz; amplifier—DC offset=off position; waveform generator—60 KHz sine waveform. The device was run for 5 minutes at 0, 3, 11 or 13 voltage peak to peak (VPP). […] Therefore, an electric circuit between the device and the eye tissue was not created.
Following delivery, the residual Riboflavin-5-phosphate-sodium was washed from the eye with normal saline. The animal was euthanized, the eyes removed and the eyes fixed in 4% paraformaldehyde for 5 minutes before being cryopreserved and immediately sectioned at 16 μm thickness.
Sections were visualised under a Nikon A1 confocal microscope using the green 488 channel and imaged using the 10× objective. Data analysis for quantification was performed with an n=3 with 8 regions per section, with the gain of the laser set to optimal fluorescence for the brightest section (gain setting 110) and maintained for all imaging.

[3] = for SAW samples pixel intensity: SAW approximately 4V; for SAW samples pixel intensity / Control samples pixel intensity: 5 s exposure, 30 μg/ml; for Control samples pixel intensity: no acoustic waves (0 mV)
Method: The SAW device 10 illustrated in FIG. 1 was used to controllably deliver albumin-fluorescein isothiocyanate (FITC-albumin) across epithelial membranes of pig lips. Fresh lips tissues from pigs were obtained from a slaughterhouse. The experiments were conducted within 2 hours after the animals were sacrificed. The porcine lips were exposed to FITC-albumin molecules with and without the acoustic waves. The exposure time was 5 s for both control and SAW experiments. The power or voltage was maintained at 0 mV (no voltage) for control, and approximately 4V for SAW experiments. The concentration and the amount of FITC-Albumin (30 μg/ml) used was maintained constant throughout the penetration depth study.
The fresh tissues were further snap frozen in isopentane chilled by liquid nitrogen with the aid of optimal cutting temperature compound (OCT) as the embedding medium. Samples were further wrapped in aluminium foil and stored at −80° C. until sectioned by a dermatome. The tissues were sectioned by a dermatome in a cryostat to create samples of contiguous layers of tissue of 50 μm thickness.
Fluorescent images of the samples were obtained and quantified using Image J software to calculate the normalised pixel intensity of the green channel.

With O=C1OC2(c3ccc(O)cc3Oc3cc(O)ccc32)c2ccccc21 [Fluorescein, Fluorescein sodium salt] the “perfusion into pig lip tissue with SAW” value [1] was “showed an improvement, especially for longer exposure time” and the “passive diffusion into pig lip tissue (control sample)” value [1] was “prevalent”.

In the case of Cc1cc2nc3c(=O)[nH]c(=O)nc-3n(C[C@H](O)[C@H](O)[C@H](O)COP(=O)([O-])O)c2cc1C.[Na+] [Riboflavin-5-phosphate-sodium], the “concentrations in posterior iris, ciliary body and choroid” value [2] is reported as “significant concentrations”, the “delivery to the posterior segment of the eye” value [2] is reported as “concentrated in the uveal tract” and the “fluorescence in anterior chamber and vitreous” value [2] is reported as “did not show any fluorescence”. For the same molecule, the “increase in average relative fluorescence intensity (RFI), treated versus control cornea” value [2] was roughly 4 times.

For “albumin-fluorescein isothiocyanate [FITC-albumin]”, the “perfusion into pig lip tissue with SAW” value [1] was “outstanding perfusion compared to passive diffusion”, the “passive diffusion into pig lip tissue (control sample)” value [1] was “hardly any diffusion” and the “depth of delivery across the epithelial layers of the pig lips” value ([3]; SAW device, 5 s, tissue deeper than 500 μm not examined) was 500 μm. For the same molecule, the “diffusion through the layers of the pig lips” value ([3]; control, no acoustic waves, 5 s) was “diffused evenly and uniformly through the layers of the pig lips”, the “SAW samples pixel intensity” value ([3]; layer 100 μm) was 37.192 and the “Control samples pixel intensity” value ([3]; layer 100 μm) was 7.52. The “SAW samples pixel intensity” value ([3]; layer 150 μm) was 19.733, the “Control samples pixel intensity” value ([3]; layer 150 μm) was 7.421 and the “SAW samples pixel intensity” value ([3]; layer 200 μm) was 19.835. For the same molecule, the “Control samples pixel intensity” value ([3]; layer 200 μm) was 6.617, the “SAW samples pixel intensity” value ([3]; layer 250 μm) was 14.041 and the “Control samples pixel intensity” value ([3]; layer 250 μm) was 6.126. For the same molecule, the “SAW samples pixel intensity” value ([3]; layer 300 μm) was 11.229, the “Control samples pixel intensity” value ([3]; layer 300 μm) was 7.488 and the “SAW samples pixel intensity” value ([3]; layer 350 μm) was 16.047. For the same molecule, the “Control samples pixel intensity” value ([3]; layer 350 μm) was 7.405, the “SAW samples pixel intensity” value ([3]; layer 400 μm) was 12.274 and the “Control samples pixel intensity” value ([3]; layer 400 μm) was 7.589. For the same molecule, the “SAW samples pixel intensity” value ([3]; layer 450 μm) was 9.935, the “Control samples pixel intensity” value ([3]; layer 450 μm) was 6.886 and the “SAW samples pixel intensity” value ([3]; layer 500 μm) was 9.958. The “Control samples pixel intensity” value ([3]; layer 500 μm) was 7.715.
